The values below come from patent US20070105771A1 (Y S THERAPEUTICS, published 2007).

The target in assay [1] is T1, Purified recombinant human CD26 (rhDipeptidyl peptidase IV), R&D Systems CAT #1180-SE (human, UniProt P27487 29-766).
T1 construct: Bought recombinant protein; also called hu-CD26; soluble human CD26
Kind of assay: SPR (Biacore), Fab.

In assay [2] the target is T1, Purified recombinant human CD26 …. Kind of assay: SPR (Biacore), Fab. How it is done:
(§1) Fabs produced in E. coli as described below were diluted in PBS in a concentration of ˜0.5 μM for the assay. A typical recording included a 3 minute period of injection of the Fab followed by a period of 15 minutes of dissociation, and analysis was performed based on the raw data of the binding curves accordingly.
The CD26 binding partner was as shown below.
This is another data set of the same source.

Assay [3] shares this target. Kind of assay: SPR (Biacore), Fab. This is another data set of the same source. In general terms: Surface plasmon resonance follows binding to a sensor surface in real time, without labels.
The target is the same in assay [4]. Kind of assay: SPR (Biacore), Fab. How it is done:
as §1
This is another data set of the same source.

The target in assay [5] is human CD26 on the cell surface (human, UniProt P27487 1-766). Kind of assay: cell-based or functional assay.
Chain of human CD26 on the cell surface (P27487 whole entry): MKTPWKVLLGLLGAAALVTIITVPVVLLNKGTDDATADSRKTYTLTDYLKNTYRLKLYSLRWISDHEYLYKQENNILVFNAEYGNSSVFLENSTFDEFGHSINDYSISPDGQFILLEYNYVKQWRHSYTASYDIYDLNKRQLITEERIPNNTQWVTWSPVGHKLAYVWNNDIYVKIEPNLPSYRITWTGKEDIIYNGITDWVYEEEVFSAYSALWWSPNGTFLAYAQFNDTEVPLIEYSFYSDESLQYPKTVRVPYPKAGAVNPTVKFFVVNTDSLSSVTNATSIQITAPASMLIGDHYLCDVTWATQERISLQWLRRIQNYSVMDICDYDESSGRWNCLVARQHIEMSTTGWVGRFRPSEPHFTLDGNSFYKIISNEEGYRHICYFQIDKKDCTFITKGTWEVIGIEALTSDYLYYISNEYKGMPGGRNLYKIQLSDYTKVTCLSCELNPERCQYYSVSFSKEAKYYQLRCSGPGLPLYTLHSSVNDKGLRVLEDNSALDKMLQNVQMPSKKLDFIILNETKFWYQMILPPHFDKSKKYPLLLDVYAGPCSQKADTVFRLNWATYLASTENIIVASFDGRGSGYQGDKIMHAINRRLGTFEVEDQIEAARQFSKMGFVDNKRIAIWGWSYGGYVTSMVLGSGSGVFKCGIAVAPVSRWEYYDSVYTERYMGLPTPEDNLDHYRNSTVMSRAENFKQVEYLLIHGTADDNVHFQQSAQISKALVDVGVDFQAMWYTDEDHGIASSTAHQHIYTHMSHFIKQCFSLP

Like-named read-outs stand apart in the source and are kept apart here.

T1 sequence (P27487 29-766 limits assumed): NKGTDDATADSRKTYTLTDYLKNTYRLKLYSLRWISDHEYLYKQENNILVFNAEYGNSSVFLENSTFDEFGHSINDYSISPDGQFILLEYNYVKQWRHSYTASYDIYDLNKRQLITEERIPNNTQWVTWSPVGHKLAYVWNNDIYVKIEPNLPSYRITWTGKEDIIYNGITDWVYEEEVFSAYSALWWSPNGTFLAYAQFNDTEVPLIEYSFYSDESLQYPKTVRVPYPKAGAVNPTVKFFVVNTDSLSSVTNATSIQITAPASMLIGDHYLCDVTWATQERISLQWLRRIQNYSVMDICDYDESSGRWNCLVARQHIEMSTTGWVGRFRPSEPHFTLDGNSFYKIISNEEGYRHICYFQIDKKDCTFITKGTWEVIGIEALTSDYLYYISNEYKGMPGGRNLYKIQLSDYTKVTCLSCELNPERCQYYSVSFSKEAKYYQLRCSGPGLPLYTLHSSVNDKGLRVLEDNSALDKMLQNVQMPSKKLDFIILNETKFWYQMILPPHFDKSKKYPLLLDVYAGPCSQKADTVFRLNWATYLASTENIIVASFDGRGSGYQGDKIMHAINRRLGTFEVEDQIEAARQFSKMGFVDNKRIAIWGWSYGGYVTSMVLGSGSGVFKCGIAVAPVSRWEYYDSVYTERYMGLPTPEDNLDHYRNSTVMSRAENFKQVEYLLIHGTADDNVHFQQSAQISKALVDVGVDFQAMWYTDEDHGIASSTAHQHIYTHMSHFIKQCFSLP

B1: Fab comprising X377 VL and CM03 VH (Fab, V domains shown)
VH: QVKLQESGPGLVQPSQTLSITCTVSGFSLTTYGVHWVRQSPGKGLEWLGVIWGGGRTDYDAAFISRLSISKDNSKSQVFFKMNSLQANDTAIYYCVRNRHDWFDYWGQGTTVTVSS
VL: EIELTQSPSSLSVSLGDRVTISCSASQDIRNNLNWYQQKPGQAPRLLIYYSSNLQTGVPARFSGSGSGTDFTLTISRLEPEDVAAYYCQQSIKLPFTFGSGTKVEIK
notes: Fab made in E. coli; also called X377 Fab
On to B1, for which the dissociation constant (Kd) (commonly a measure of binding affinity in units of concentration) in assay [1] was determined as 1.9 nM. Also, in assay [2], the Kd turned out to be 1.88 nM; the koff – broadly, the rate constant with which the complex falls apart – was 0.000596 s⁻¹; the kon (in general, the second-order rate constant of association) was determined as 317000 M⁻¹ s⁻¹.

B2: Fab comprising X379 VL and CM03 VH (Fab, V domains shown)
VH: QVKLQESGPGLVQPSQTLSITCTVSGFSLTTYGVHWVRQSPGKGLEWLGVIWGGGRTDYDAAFISRLSISKDNSKSQVFFKMNSLQANDTAIYYCVRNRHDWFDYWGQGTTVTVSS
VL: DILLTQSPSSLSATPGERATITCRASQGIRNNLNWYQQKPGQAPRLLIYYSSNLQSGVPSRFSGSGSGTDFTLTISRLQPEDVAAYYCQQSIKLPFTFGSGTKVEIK
notes: Fab made in E. coli
For the molecule B2, the Kd in assay [1] turned out to be 1.2 nM. For the same molecule, in assay [2], the Kd was determined as 1.16 nM, the koff was 0.00067 s⁻¹ and the association rate constant (kon) was 578000 M⁻¹ s⁻¹.

B3: Fab X394 (X384 VH and X394 VL) (Fab, V domains shown)
VH: EVQLVESGAGVKQPGGTLRLTCTASGFSLTTYGVHWVRQAPGKGLEWVGVIWGDGRTDYDAAFMSRVTISKDTSKSTVYLQMNSLRAEDTAVYYCMRNRHDWFDYWGQGTTVTVSS
VL: DILMTQSPSSLSASPGDRVTISCRASQDIRNNLNWYQQKPGQAPRLLIYYSSNLQTGVPARFSGSGSGTDFTLTISRLEPEDFAAYYCQQSIKLPLTFGSGTKVEIK
notes: Fab made in E. coli
Consider B3, for which the dissociation constant Kd in assay [3] came out at 0.58 nM. Moreover, in assay [1], the Kd is 0.58 nM and the “ratio of the Kd of CM03 Fab to the Kd of individual clone” value worked out at 2.81.

B4: Fab comprising X378 VL and CM03 VH (Fab, V domains shown)
VH: QVKLQESGPGLVQPSQTLSITCTVSGFSLTTYGVHWVRQSPGKGLEWLGVIWGGGRTDYDAAFISRLSISKDNSKSQVFFKMNSLQANDTAIYYCVRNRHDWFDYWGQGTTVTVSS
VL: DIEMTQSPSSLSASAGERVTISCRASQGIRNSLNWYQQKPGQAPRLLIYYSSNLQTGVPSRFSGSGSGTDFTLTISRLQAEDFATYYCQQSNKLPFTFGSGTKVEIK
notes: Fab made in E. coli
For the molecule B4, the Kd in assay [1] came out at 2.9 nM. Moreover, in assay [2], the Kd was found to be 2.92 nM, the koff was found to be 0.00083 s⁻¹ and the kon stood at 285000 M⁻¹ s⁻¹.

B5: Fab comprising X376 VL and CM03 VH (Fab, V domains shown)
VH: QVKLQESGPGLVQPSQTLSITCTVSGFSLTTYGVHWVRQSPGKGLEWLGVIWGGGRTDYDAAFISRLSISKDNSKSQVFFKMNSLQANDTAIYYCVRNRHDWFDYWGQGTTVTVSS
VL: DILMTQSPSSLSASPGDRVTISCRASQDIRNNLNWYQQKPGQAPRLLIYYSSNLHSGVPDRFSGSGSGTDFTLTISRLEPEDFAAYYCQQSIKLPLTFGSGTKVEIK
notes: Fab made in E. coli
As for B5, the dissociation constant (Kd) in assay [1] is 2.3 nM. Also, in assay [2], the dissociation constant (Kd) turned out to be 2.31 nM, the koff came to 0.000596 s⁻¹ and the kon turned out to be 258000 M⁻¹ s⁻¹.

B6: Fab comprising X381 VL and CM03 VH (Fab, V domains shown)
VH: QVKLQESGPGLVQPSQTLSITCTVSGFSLTTYGVHWVRQSPGKGLEWLGVIWGGGRTDYDAAFISRLSISKDNSKSQVFFKMNSLQANDTAIYYCVRNRHDWFDYWGQGTTVTVSS
VL: EIELTQSPSSLSVSPGDRVTISCSASQGIRNSLNWYQQKPGQAPRLLIYYSSNLHTGVPARFSGSGSGTDFTLTISRLQAEDFATYYCQQSIKLPLTFGSGTKVEIK
notes: Fab made in E. coli
For B6, the dissociation constant (Kd) in assay [1] stood at 2.1 nM. Further, in assay [2], the Kd was 2.1 nM, the koff came to 0.000601 s⁻¹ and the kon was 293000 M⁻¹ s⁻¹.

B7: Fab comprising X380 VL and CM03 VH (Fab, V domains shown)
VH: QVKLQESGPGLVQPSQTLSITCTVSGFSLTTYGVHWVRQSPGKGLEWLGVIWGGGRTDYDAAFISRLSISKDNSKSQVFFKMNSLQANDTAIYYCVRNRHDWFDYWGQGTTVTVSS
VL: EIEMTQSPSSLSVSAGERATISCSASQDIRNSLNWYQQKPGQAPRLLIYYSSNLHTGVPARFSGSGSGTDFTLTISRLEPEDVAIYYCQQSNKLPLTFGSGTKVEIK
notes: Fab made in E. coli
B7: in assay [1], the Kd amounted to 2.3 nM. Besides, in assay [2], the Kd came out at 2.33 nM, the off-rate constant (koff) was determined as 0.000687 s⁻¹ and the kon was 294000 M⁻¹ s⁻¹.

B8: Fab comprising X387 VH and CM03 VL (Fab, V domains shown)
VH: EVQLVESGAELVQPGGSLRLTCKASGFTLNTYGVHWVRQAPGKGLEWMGVIWGGGRTDYDASFMSRVTISKDNSKNTAYLQLNSLRAEDTAVYYCTRSRHDWFDYWGQGTTVTVSS
VL: DIQMTQSPSSLSASLGDRVTITCSASQGIRNSLNWYQQKPDGAVKLLIYYSSNLHSGVPSRFSGSGSGTDFSLTISNLEPEDIATYYCQQSIKLPFTFGSGTKLEIK
notes: Fab made in E. coli
As to B8, the equilibrium dissociation constant (Kd) in assay [1] amounted to 51 nM. Moreover, in assay [4], the equilibrium dissociation constant (Kd) was 51.1 nM, the dissociation rate constant (koff) amounted to 0.01 s⁻¹ and the kon came out at 196000 M⁻¹ s⁻¹.

B9: rhuMAb 410 (antibody, human IgG1, V domains shown)
VH: EVQLVQSGGGLKQPGETLRLSCTASGYSLTTYGVHWVRQAPGKGLEWMGVIWGDGRTDYDSSFMSRVTISKDTSKSTAYLQLNSLRAEDTAVYYCTRNRHDWFDYWGQGTTVTVSS
VL: DILMTQSPSSLSASPGDRVTISCRASQDIRNNLNWYQQKPGQAPRLLIYYSSNLHSGVPDRFSGSGSGTDFTLTISRLEPEDFAAYYCQQSIKLPLTFGSGTKVEIKR
On to B9, for which, in assay [5], the “percent inhibition, MTT assay, Jurkat CD26+ cells, 0.05 ug/ml” value came out at 4%; the “percent inhibition, MTT assay, Jurkat CD26+ cells, 0.25 ug/ml” value turned out to be 10.7%; the “percent inhibition, MTT assay, Jurkat CD26+ cells, 0.5 ug/ml” value was found to be 14%; the “percent inhibition, MTT assay, Jurkat CD26+ cells, 2.5 ug/ml” value stood at 27.5%. Further, the “percent inhibition, MTT assay, Jurkat CD26+ cells, 5 ug/ml” value in assay [5] came to 33.5%.

B10: Fab X430 (X399 VH and X394 VL) (Fab, V domains shown)
VH: EVQLVQSGGGVKQPGETLRLTCTASGFSLSTYGVHWVRQAPGKGLEWVGVIWGDGRTDYDAAFMSRVTISKDTSKSTVYLQMNSLRAEDTAVYYCMRNRHDWFDYWGQGTTVTVSS
VL: DILMTQSPSSLSASPGDRVTISCRASQDIRNNLNWYQQKPGQAPRLLIYYSSNLQTGVPARFSGSGSGTDFTLTISRLEPEDFAAYYCQQSIKLPLTFGSGTKVEIK
notes: also called Fab X429
In the case of B10, the Kd in assay [3] is 1.19 nM. Besides, in assay [1], the equilibrium dissociation constant (Kd) was determined as 1.19 nM and the “ratio of the Kd of CM03 Fab to the Kd of individual clone” value was 1.37.

B11: Fab comprising X385 VH and CM03 VL (Fab, V domains shown)
VH: EVQLVQSGGGVKQPGETLRLTCTASGFSLTTYGVHWVRQAPGKGLEWVGVIWGDGRTDYDAAFMSRVTISKDTSKSTAYLQMNSLRAEDTAVYYCMRNRHDWFDYWGQGTTVTVSS
VL: DIQMTQSPSSLSASLGDRVTITCSASQGIRNSLNWYQQKPDGAVKLLIYYSSNLHSGVPSRFSGSGSGTDFSLTISNLEPEDIATYYCQQSIKLPFTFGSGTKLEIK
notes: Fab made in E. coli
Regarding B11, the Kd in assay [1] worked out at 1.5 nM. In assay [4], the Kd worked out at 1.47 nM, the koff was 0.000375 s⁻¹ and the association rate constant (kon) was determined as 256000 M⁻¹ s⁻¹.

B12: Fab comprising X386 VH and CM03 VL (Fab, V domains shown)
VH: EVQLVESGAGVEQPGGTLRLTCTASGFSLTTYGVHWVRQAPGKGLEWMGVIWGDGRTDYDAAFMSRVTISRDTSKSTAYLQLNSLRAEDTAVYYCVRNRHDWFDYWGQGTTVTVSS
VL: DIQMTQSPSSLSASLGDRVTITCSASQGIRNSLNWYQQKPDGAVKLLIYYSSNLHSGVPSRFSGSGSGTDFSLTISNLEPEDIATYYCQQSIKLPFTFGSGTKLEIK
notes: Fab made in E. coli
As for B12, in assay [1], the Kd stood at 2.7 nM. Further, in assay [4], the dissociation constant (Kd) is 2.71 nM, the koff worked out at 0.000498 s⁻¹ and the on-rate (kon) amounted to 184000 M⁻¹ s⁻¹.

B13: Fab comprising X384 VH and CM03 VL (Fab, V domains shown)
VH: EVQLVESGAGVKQPGGTLRLTCTASGFSLTTYGVHWVRQAPGKGLEWVGVIWGDGRTDYDAAFMSRVTISKDTSKSTVYLQMNSLRAEDTAVYYCMRNRHDWFDYWGQGTTVTVSS
VL: DIQMTQSPSSLSASLGDRVTITCSASQGIRNSLNWYQQKPDGAVKLLIYYSSNLHSGVPSRFSGSGSGTDFSLTISNLEPEDIATYYCQQSIKLPFTFGSGTKLEIK
notes: Fab made in E. coli
Take B13: the Kd in assay [1] worked out at 1.2 nM. Also, in assay [4], the Kd was 1.19 nM, the dissociation rate constant (koff) was 0.000312 s⁻¹ and the association rate constant (kon) was 262000 M⁻¹ s⁻¹.

B14: Fab X431 (X420 VH and X380 VL) (Fab, V domains shown)
VH: EVQLVESGGGVKQPGETLRLTCTASGFSLSTYGVHWVRQAPGKGLEWVGVIWGDGRTDYDAAFMSRVTISKDTSKSTVYLQMNSLRAEDTAVYYCMRNRHDWFDYWGQGTTVTVSS
VL: EIEMTQSPSSLSVSAGERATISCSASQDIRNSLNWYQQKPGQAPRLLIYYSSNLHTGVPARFSGSGSGTDFTLTISRLEPEDVAIYYCQQSNKLPLTFGSGTKVEIK
notes: also called Fab X420
With B14, the Kd in assay [3] and in assay [1] was 0.92 nM each time.

B15: Fab X399 (X399 VH and X380 VL) (Fab, V domains shown)
VH: EVQLVQSGGGVKQPGETLRLTCTASGFSLSTYGVHWVRQAPGKGLEWVGVIWGDGRTDYDAAFMSRVTISKDTSKSTVYLQMNSLRAEDTAVYYCMRNRHDWFDYWGQGTTVTVSS
VL: EIEMTQSPSSLSVSAGERATISCSASQDIRNSLNWYQQKPGQAPRLLIYYSSNLHTGVPARFSGSGSGTDFTLTISRLEPEDVAIYYCQQSNKLPLTFGSGTKVEIK
notes: Fab made in E. coli
Take B15: the dissociation constant (Kd) in assay [3] and in assay [1] was 2.85 nM throughout.

B16: Fab comprising X388 VH and CM03 VL (Fab, V domains shown)
VH: EVQLVQSGGGLKQPGETLRLSCTASGYSLTTYGVHWVRQAPGKGLEWMGVIWGDGRTDYDSSFMSRVTISKDTSKSTAYLQLNSLRAEDTAVYYCTRNRHDWFDYWGQGTTVTVSS
VL: DIQMTQSPSSLSASLGDRVTITCSASQGIRNSLNWYQQKPDGAVKLLIYYSSNLHSGVPSRFSGSGSGTDFSLTISNLEPEDIATYYCQQSIKLPFTFGSGTKLEIK
notes: Fab made in E. coli
B16: the Kd in assay [1] is 3 nM. In addition, in assay [4], the dissociation constant Kd turned out to be 2.98 nM, the koff was 0.000698 s⁻¹ and the kon was 235000 M⁻¹ s⁻¹.
